Reference: article PMC9482650, “Quantitative fragmentomics allow affinity mapping of interactomes” (Nature Communications, 2022)

T1: CARD11, Q9BXL7
T1 sequence (Q9BXL7 662-765, limits assumed, looked up): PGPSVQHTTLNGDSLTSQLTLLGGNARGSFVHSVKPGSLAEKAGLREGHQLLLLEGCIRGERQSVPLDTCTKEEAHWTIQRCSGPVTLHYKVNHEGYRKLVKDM

T2: GRIP1_7, Q9Y3R0
T2 sequence (Q9Y3R0 999-1096, limits assumed, looked up): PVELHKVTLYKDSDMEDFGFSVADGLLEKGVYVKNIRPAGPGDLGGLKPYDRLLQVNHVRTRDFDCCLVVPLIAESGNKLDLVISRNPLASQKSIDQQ

T3: TIAM2, Q8IVF5
T3 sequence (Q8IVF5 885-986, limits assumed, looked up): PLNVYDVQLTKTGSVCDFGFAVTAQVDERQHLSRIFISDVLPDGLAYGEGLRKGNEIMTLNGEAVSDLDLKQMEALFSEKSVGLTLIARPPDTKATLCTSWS

T4: GRIP1_3, Q9Y3R0
T4 sequence (Q9Y3R0 247-346, limits assumed, looked up): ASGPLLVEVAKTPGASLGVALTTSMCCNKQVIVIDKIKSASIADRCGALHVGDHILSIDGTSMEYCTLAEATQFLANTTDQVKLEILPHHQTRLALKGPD

T5: LNX2_3, Q8N448
T5 sequence (Q8N448 463-564, limits assumed, looked up): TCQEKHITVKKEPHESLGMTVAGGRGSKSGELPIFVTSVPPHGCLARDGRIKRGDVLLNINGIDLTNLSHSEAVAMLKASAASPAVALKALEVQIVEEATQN

T6: DVL3, Q92997
T6 sequence (Q92997 244-331, limits assumed, looked up): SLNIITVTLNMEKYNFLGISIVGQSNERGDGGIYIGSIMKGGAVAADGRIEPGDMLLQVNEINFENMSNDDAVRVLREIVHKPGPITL

T7: DFNB31_3, Q9P202
T7 sequence (Q9P202 811-907, limits assumed, looked up): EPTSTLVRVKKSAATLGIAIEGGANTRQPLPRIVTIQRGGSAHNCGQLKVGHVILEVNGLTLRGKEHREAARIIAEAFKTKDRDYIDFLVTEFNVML

T8: DFNB31_1, Q9P202
T8 sequence (Q9P202 135-233, limits assumed, looked up): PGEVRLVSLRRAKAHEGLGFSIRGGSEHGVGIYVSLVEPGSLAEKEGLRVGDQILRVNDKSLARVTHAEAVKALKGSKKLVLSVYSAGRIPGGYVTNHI

T9: RHPN1, Q8TCX5
T9 sequence (Q8TCX5 508-602, limits assumed, looked up): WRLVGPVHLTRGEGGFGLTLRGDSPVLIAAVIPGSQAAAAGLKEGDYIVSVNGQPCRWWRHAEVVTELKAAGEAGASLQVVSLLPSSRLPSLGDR

T10: DLG3_3, Q92796
T10 sequence (Q92796 374-475, limits assumed, looked up): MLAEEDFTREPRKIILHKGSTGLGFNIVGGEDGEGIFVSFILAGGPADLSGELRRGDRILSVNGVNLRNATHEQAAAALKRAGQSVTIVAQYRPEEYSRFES

T11: PCLO, Q9Y6V0
T11 sequence (Q9Y6V0 4491-4600, limits assumed, looked up): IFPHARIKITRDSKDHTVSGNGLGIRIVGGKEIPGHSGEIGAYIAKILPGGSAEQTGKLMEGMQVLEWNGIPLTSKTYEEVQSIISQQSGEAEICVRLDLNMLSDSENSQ


Legend:
Experiment in all cases: holdup assay
Set-up in all cases: key: below the threshold = too weak to quantify, mostly under pKd 3.1 to 4
Conditions in all cases: plain residues with an end cap or a label only (N-terminal biotin on a linker: ttds)
CARD11, Q9BXL7 = target: T1, CARD11, Q9BXL7
CASK, O14936 = target: CASK, O14936
SCRIB_3, Q14160 = target: SCRIB_3, Q14160
GRIP1_7, Q9Y3R0 = target: T2, GRIP1_7, Q9Y3R0
Inadl_10, Q8NI35 = target: Inadl_10, Q8NI35
MAGI1_2, Q96QZ7 = target: MAGI1_2, Q96QZ7
FRMPD3, Q5JV73 = target: FRMPD3, Q5JV73
TIAM2, Q8IVF5 = target: T3, TIAM2, Q8IVF5
Inadl_6, Q8NI35 = target: Inadl_6, Q8NI35
MAGI2_3, Q86UL8 = target: MAGI2_3, Q86UL8
PTPN3, P26045 = target: PTPN3, P26045
MAGI2_5, Q86UL8 = target: MAGI2_5, Q86UL8
GRIP1_3, Q9Y3R0 = target: T4, GRIP1_3, Q9Y3R0
LNX2_3, Q8N448 = target: T5, LNX2_3, Q8N448
MAST1, Q9Y2H9 = target: MAST1, Q9Y2H9
GRID2IP_2, A4D2P6 = target: GRID2IP_2, A4D2P6
DVL3, Q92997 = target: T6, DVL3, Q92997
DFNB31_3, Q9P202 = target: T7, DFNB31_3, Q9P202
DFNB31_1, Q9P202 = target: T8, DFNB31_1, Q9P202
RHPN1, Q8TCX5 = target: T9, RHPN1, Q8TCX5
TJP2_1, Q9UDY2 = target: TJP2_1, Q9UDY2
DLG1_1, Q12959 = target: DLG1_1, Q12959
DLG1_2, Q12959 = target: DLG1_2, Q12959
NHERF2_2, Q15599 = target: NHERF2_2, Q15599
DLG4_3, P78352 = target: DLG4_3, P78352
DLG3_3, Q92796 = target: T10, DLG3_3, Q92796
PCLO, Q9Y6V0 = target: T11, PCLO, Q9Y6V0

Chain of MAGI1_2, Q96QZ7 (Q96QZ7 456-580): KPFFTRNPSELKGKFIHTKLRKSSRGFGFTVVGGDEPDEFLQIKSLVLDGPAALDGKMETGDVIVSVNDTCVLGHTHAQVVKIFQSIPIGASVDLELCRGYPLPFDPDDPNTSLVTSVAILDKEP
Chain of MAST1, Q9Y2H9 (Q9Y2H9 962-1065): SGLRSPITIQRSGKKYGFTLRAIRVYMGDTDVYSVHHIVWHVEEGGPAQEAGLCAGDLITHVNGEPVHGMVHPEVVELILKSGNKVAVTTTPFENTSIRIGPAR
Chain of MAGI2_3, Q86UL8 (Q86UL8 600-682): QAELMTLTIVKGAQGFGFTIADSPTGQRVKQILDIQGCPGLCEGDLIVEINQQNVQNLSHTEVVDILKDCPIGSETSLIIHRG
Chain of DLG4_3, P78352 (P78352 306-403): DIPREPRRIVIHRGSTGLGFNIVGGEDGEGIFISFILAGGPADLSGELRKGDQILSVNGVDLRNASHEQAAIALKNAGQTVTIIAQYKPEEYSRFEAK
Chain of Inadl_10, Q8NI35 (Q8NI35 1673-1763): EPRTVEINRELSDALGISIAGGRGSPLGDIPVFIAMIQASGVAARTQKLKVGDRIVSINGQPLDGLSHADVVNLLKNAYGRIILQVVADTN
Chain of FRMPD3, Q5JV73 (Q5JV73 12-100): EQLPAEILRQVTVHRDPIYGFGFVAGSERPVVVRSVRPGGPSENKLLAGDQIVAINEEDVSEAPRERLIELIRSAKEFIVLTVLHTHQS
Chain of MAGI2_5, Q86UL8 (Q86UL8 915-1017): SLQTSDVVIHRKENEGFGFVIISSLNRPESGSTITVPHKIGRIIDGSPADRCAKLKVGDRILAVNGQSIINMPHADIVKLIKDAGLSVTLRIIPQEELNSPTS
Chain of TJP2_1, Q9UDY2 (Q9UDY2 24-128): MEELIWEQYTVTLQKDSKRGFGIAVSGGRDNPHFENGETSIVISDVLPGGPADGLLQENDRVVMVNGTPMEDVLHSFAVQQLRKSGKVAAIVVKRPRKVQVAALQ
Chain of NHERF2_2, Q15599 (Q15599 142-238): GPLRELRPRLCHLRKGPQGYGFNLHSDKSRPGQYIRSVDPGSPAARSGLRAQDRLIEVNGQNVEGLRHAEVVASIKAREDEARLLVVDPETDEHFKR
Chain of PTPN3, P26045 (P26045 505-587): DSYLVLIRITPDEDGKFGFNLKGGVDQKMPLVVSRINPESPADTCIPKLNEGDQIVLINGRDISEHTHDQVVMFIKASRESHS
Chain of SCRIB_3, Q14160 (Q14160 999-1103): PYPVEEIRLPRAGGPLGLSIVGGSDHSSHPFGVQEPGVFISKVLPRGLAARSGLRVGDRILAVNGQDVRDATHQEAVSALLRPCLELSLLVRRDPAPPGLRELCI
Chain of Inadl_6, Q8NI35 (Q8NI35 1058-1167): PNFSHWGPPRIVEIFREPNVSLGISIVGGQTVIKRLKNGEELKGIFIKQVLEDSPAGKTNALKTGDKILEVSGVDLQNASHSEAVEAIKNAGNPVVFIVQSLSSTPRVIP
Chain of CASK, O14936 (O14936 487-570): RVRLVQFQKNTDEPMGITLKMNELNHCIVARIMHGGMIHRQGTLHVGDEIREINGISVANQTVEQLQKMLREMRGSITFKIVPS
Chain of GRID2IP_2, A4D2P6 (A4D2P6 272-370): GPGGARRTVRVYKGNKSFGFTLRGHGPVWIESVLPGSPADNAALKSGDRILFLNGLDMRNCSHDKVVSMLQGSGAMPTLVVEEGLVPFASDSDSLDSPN

| Binder | pKd (CARD11, Q9BXL7) | pKd (CASK, O14936) | pKd (SCRIB_3, Q14160) | pKd (GRIP1_7, Q9Y3R0) | pKd (Inadl_10, Q8NI35) | pKd (MAGI1_2, Q96QZ7) | pKd (FRMPD3, Q5JV73) | pKd (TIAM2, Q8IVF5) | pKd (Inadl_6, Q8NI35) | pKd (MAGI2_3, Q86UL8) | pKd (PTPN3, P26045) | pKd (MAGI2_5, Q86UL8) | pKd (GRIP1_3, Q9Y3R0) | pKd (LNX2_3, Q8N448) | pKd (MAST1, Q9Y2H9) | pKd (GRID2IP_2, A4D2P6) | pKd (DVL3, Q92997) | pKd (DFNB31_3, Q9P202) | pKd (DFNB31_1, Q9P202) | pKd (RHPN1, Q8TCX5) | also measured |
| --- | --- | --- | --- | --- | --- | --- | --- | --- | --- | --- | --- | --- | --- | --- | --- | --- | --- | --- | --- | --- | --- |
| SSLQSLETSV [ATP2B4, P23634] | below the threshold | below the threshold | 5.11 | below the threshold | below the threshold | 3.68 | below the threshold | below the threshold | below the threshold | 4.2 | 5.12 | 4.6 | below the threshold | below the threshold | 5.26 | below the threshold | 3.6 | below the threshold | 4.17 | 4.58 | pKd (TJP2_1, Q9UDY2): 3.62; pKd (DLG1_1, Q12959): 5; pKd (DLG1_2, Q12959): 5.43; pKd (NHERF2_2, Q15599): 3.84; pKd (DLG4_3, P78352): 4.65; pKd (DLG3_3, Q92796): 4.73; pKd (PCLO, Q9Y6V0): below the threshold |
| EVVHTPETSV [SLC16A3, O15427] | below the threshold | below the threshold | 4.58 | 3.79 | below the threshold | below the threshold | below the threshold | below the threshold | below the threshold | below the threshold | 4.86 | below the threshold | below the threshold | below the threshold | 4.11 | below the threshold | below the threshold | below the threshold | 3.86 | 4.24 | pKd (TJP2_1, Q9UDY2): below the threshold; pKd (DLG1_1, Q12959): 3.87; pKd (DLG1_2, Q12959): 4.3; pKd (NHERF2_2, Q15599): below the threshold; pKd (DLG4_3, P78352): 3.94; pKd (DLG3_3, Q92796): 4.28; pKd (PCLO, Q9Y6V0): below the threshold |
| RLPKIKETTV [FRMPD4, Q14CM0] | below the threshold | below the threshold | 4.88 | below the threshold | below the threshold | 4.49 | below the threshold | below the threshold | below the threshold | 4.05 | 4.89 | 3.9 | below the threshold | below the threshold | 4.26 | 3.74 | 3.43 | below the threshold | 3.96 | 4.19 | pKd (TJP2_1, Q9UDY2): below the threshold; pKd (DLG1_1, Q12959): 5.12; pKd (DLG1_2, Q12959): 6.06; pKd (NHERF2_2, Q15599): below the threshold; pKd (DLG4_3, P78352): 5.25; pKd (DLG3_3, Q92796): 5.21; pKd (PCLO, Q9Y6V0): below the threshold |
